For the test, the target named is His-tagged dynamin 2b (dynamin 2-WT, baculovirus) (rat). Description: not stated; polymerization of recombinant (baculovirus) dynamin 2 with or without Bis-T-23; method in Supplementary Figures S2E, F.

B1: His-tagged dynamin 2b (dynamin 2-WT, baculovirus) (enzyme)
chain: MGNRGMEELIPLVNKLQDAFSSIGQSCHLDLPQIAVVGGQSAGKSSVLENFVGRDFLPRGSGIVTRRPLILQLIFSKTEYAEFLHCKSKKFTDFDEVRQEIEAETDRVTGTNKGISPVPINLRVYSPHVLNLTLIDLPGITKVPVGDQPPDIEYQIKDMILQFISRESSLILAVTPANMDLANSDALKLAKEVDPQGLRTIGVITKLDLMDEGTDARDVLENKLLPLRRGYIGVVNRSQKDIEGRKDIRAALAAERKFFLSHPAYRHMADRMGTPHLQKTLNQQLTNHIRESLPTLRSKLQSQLLSLEKEVEEYKNFRPDDPTRKTKALLQMVQQFGVDFEKRIEGSGDQVDTLELSGGARINRIFHERFPFELVKMEFDEKDLRREISYAIKNIHGVRTGLFTPDMAFEAIVKKQLVKLKEPSLKCVDLVVSELATVIKKCAEKLSSYPRLREETERIVTTYIREREGRTKDQILLLIDIEQSYINTNHEDFIGFANAQQRSTQLNKKRAIPNQGEILVIRRGWLTINNISLMKGGSKEYWFVLTAESLSWYKDEEEKEKKYMLPLDNLKIRDVEKGFMSNKHVFAIFNTEQRNVYKDLRQIELACDSQEDVDSWKASFLRAGVYPEKDQAENEDGAQENTFSMDPQLERQVETIRNLVDSYVAIINKSIRDLMPKTIMHLMINNTKAFIHHELLAYLYSSADQSSLMEESAEQAQRRDDMLRMYHALKEALNIIGDISTSTVSTPVPPPVDDTWLQNTSSHSPTPQRRPVSSVHPPGRPPAVRGPTPGPPLIPMPVGATSSFSAPPIPSRPGPQNVFANNDPFSAPPQIPSRPARIPPGIPPGVPSRRAPAAPSRPTIIRPAEPSLLD
modifications: not checked
Take B1: the fold increase of polymerization with Bis-T-23 against without Bis-T-23 is 30 times.

The values are drawn from publication PMC9127447.
